From US20130089540A1 (BIOEX THERAPEUTICS, published 2013) come the findings set out here.

Residue numbers refer to the chain shown, from its start.

In test [1] the target is T1, CD20 (UniProt P11836 1-297, limits assumed).
T1 construct: whole, on cells; also called CD20 on CD20+ Ramos cells; antigen
T1 sequence (looked up): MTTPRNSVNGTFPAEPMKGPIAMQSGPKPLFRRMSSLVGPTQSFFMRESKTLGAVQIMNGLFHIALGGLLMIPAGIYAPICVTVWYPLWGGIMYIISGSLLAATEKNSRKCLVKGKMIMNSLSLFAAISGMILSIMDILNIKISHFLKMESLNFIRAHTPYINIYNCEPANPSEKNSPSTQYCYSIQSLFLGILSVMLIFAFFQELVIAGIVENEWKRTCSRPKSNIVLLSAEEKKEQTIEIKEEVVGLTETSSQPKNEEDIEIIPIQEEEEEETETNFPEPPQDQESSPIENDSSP
Nature of the test: FACS on CD20+ Ramos cells (FIG. 12 legend). The protocol:
(§1) The specific binding to CD20 was detected by using CD20+ Ramos cell (ATCC) and T lymphocyte leukemia Jurkat cell (ATCC). Cells were incubated with various concentration of antibodies for 1 hour at 4° C. After washing with PBS for 3 times, 1:100 diluted FITC labeled anti-human Fc γ specific second antibody (The Jakson Laboratory) was added and incubated for 1 h at 4° C. After washing with PBS for three times, specific binding was analyzed by FACS instrument.

Test [2] deals with T1, CD20. Nature of the test: FACS on CD20+ Ramos cells, FITC anti-human Fc gamma second antibody. Here is the method:
as §1

B1: humanized anti-CD20 antibody 1635 (antibody, human IgG1, V domains shown)
VH: QVQLVQSGAEVKKPGASVKVSCKASGYTFTSYNMHWVRQAPGKGLEWIGAIYPGNGDTSYNQKFKGRVTITADKSTSTAYMELSSLRSEDTAVYYCARSTYYGGDWYFNVWGQGTTVTVSS
VL: DVVMTQSPAFLSVTPGEKVTITCRASSSVSYIHWFQQKPGKAPKPLIYATSNLASGVPSRFSGSGSGTDFTLTINSLEAEDAATYYCQQWTSNPPTFGGGTKVEIK
As for B1, in test [1], the binding result is on record as “binds”.

B2: humanized anti-CD20 antibody 3637 (antibody, human IgG1, V domains shown)
VH: B1 VH with N33T, G56S, S59N, Y107N, N109E
VL: B1 VL with N93K
notes: CDR-optimized variant (hVH-2 / hVK-2)
Turning to B2, the binding result in test [1] is “binds”.

B3: humanized anti-CD20 antibody 1535 (antibody, human IgG1, V domains shown)
VH: B1 VH with A40P, K74E
VL: B1 VL
B3: in test [2], the binding result is recorded as “binds”.

B4: humanized anti-CD20 antibody 1634 (antibody, human IgG1, V domains shown)
VH: B1 VH
VL: B1 VL with P45S
For B4, in test [2], the binding result is reported as “binds”.

B5: humanized anti-CD20 antibody 1534 (antibody, human IgG1, V domains shown)
VH: B1 VH with A40P, K74E
VL: B1 VL with P45S
As for B5, the binding result in test [2] is “binds”.
